# Patent US20060020109A1 (Harvard, published 2006)
# B1: synthetic peptide #51 (peptide)
# peptide: AKAAAAEYAAAAAAA
# B2: synthetic peptide #55 (peptide)
# peptide: AAEKYAAYAAAAAAA
# B3: synthetic peptide #87 (peptide)
# peptide: EKAAYAAYKAAAAAA
# B4: synthetic peptide #118 (peptide)
# peptide: AAEAVAAAAAAAAAA
# B5: synthetic peptide #46 (peptide)
# peptide: EKEAAAAYAAAAAAA
# B6: synthetic peptide #116 (peptide)
# peptide: AAAKVAAAAAAAAAA
# B7: synthetic peptide #74 (peptide)
# peptide: EAKEYAAYAAAAAAA
# B8: synthetic peptide #81 (peptide)
# peptide: AKAEYAAYKAAAAAA
# B9: synthetic peptide #88 (peptide)
# peptide: EAEAYAAYKAAAAAA
# B10: synthetic peptide #115 (peptide)
# peptide: AAAKYAAAAAAAAAA
# B11: synthetic peptide #72 (peptide)
# peptide: EKAEYAAYAAAAAAA
# B12: synthetic peptide #75 (peptide)
# peptide: EAKAYAAYAAAAAAA
# B13: synthetic peptide #78 (peptide)
# peptide: AKEAYAAYKAAAAAA
# B14: synthetic peptide #105 (peptide)
# peptide: EEKAYAAAAAAAAAA
# B15: synthetic peptide #91 (peptide)
# peptide: EEAKYAAYKAAAAAA
# B16: synthetic peptide #79 (peptide)
# peptide: AEAKYAAYKAAAAAA
# B17: synthetic peptide #47 (peptide)
# peptide: KEKAAAAYAAAAAAA
# B18: synthetic peptide #40 (peptide)
# peptide: AEKEYAAAAAAAAAA
# B19: synthetic peptide #71 (peptide)
# peptide: EAEKYAAYAAAAAAA
# B20: synthetic peptide #86 (peptide)
# peptide: EAKAYAAYKAAAAAA
# B21: synthetic peptide #54 (peptide)
# peptide: AEKKYAAYAAAAAAA
# B22: synthetic peptide #76 (peptide)
# peptide: AAAEYAAYKAAAAAA
# B23: synthetic peptide #38 (peptide)
# peptide: AKEEYAAAAAAAAAA
# B24: synthetic peptide #67 (peptide)
# peptide: AEAKYEAYAAAAAAA
# B25: synthetic peptide #65 (peptide)
# peptide: AAKAYEAYAAAAAAA
# B26: synthetic peptide #49 (peptide)
# peptide: AEKAAAAYAAAAAAA
# B27: synthetic peptide #57 (peptide)
# peptide: AKEAYAAYAAAAAAA
# B28: synthetic peptide #58 (peptide)
# peptide: AAKEYAAYAAAAAAA
# B29: synthetic peptide #80 (peptide)
# peptide: AEEAYAAYKAAAAAA
# B30: synthetic peptide #59 (peptide)
# peptide: AKAEYAAYAAAAAAA
# B31: synthetic peptide #60 (peptide)
# peptide: AEAKYAAYAAAAAAA
# B32: synthetic peptide #89 (peptide)
# peptide: EAAEYAAYKAAAAAA
# B33: synthetic peptide #92 (peptide)
# peptide: EKEAYAAYKAAAAAA
# B34: synthetic peptide #39 (peptide)
# peptide: AKEAYAAAAAAAAAA
# B35: synthetic peptide #117 (peptide)
# peptide: AAEAYAAAAAAAAAA
# B36: synthetic peptide #56 (peptide)
# peptide: AEEKYAAYAAAAAAA
# B37: synthetic peptide #84 (peptide)
# peptide: AAKEYAAYKAAAAAA
# B38: synthetic peptide #68 (peptide)
# peptide: AAKKYEAYAAAAAAA
# B39: synthetic peptide #119 (peptide)
# peptide: AAEKAAAAAAAAAAA
# B40: synthetic peptide #77 (peptide)
# peptide: AAEKYAAYKAAAAAA
# B41: synthetic peptide #63 (peptide)
# peptide: AKEKYAAYAAAAAAA
# B42: synthetic peptide #90 (peptide)
# peptide: EEAAYAAYKAAAAAA
# B43: synthetic peptide #41 (peptide)
# peptide: EKKAYAAAAAAAAAA
# B44: synthetic peptide #62 (peptide)
# peptide: AKEEYAAYAAAAAAA
# B45: synthetic peptide #37 (peptide)
# peptide: AKKEYAAAAAAAAAA
# B46: synthetic peptide #73 (peptide)
# peptide: EKEAYAAYAAAAAAA
# B47: synthetic peptide #44 (peptide)
# peptide: EKAAYAAAAAAAAAA
# B48: synthetic peptide #85 (peptide)
# peptide: EAAKYAAYKAAAAAA
# B49: synthetic peptide #69 (peptide)
# peptide: AAEKYEAYAAAAAAA
# B50: synthetic peptide #82 (peptide)
# peptide: AKEEYAAYKAAAAAA
# B51: synthetic peptide #48 (peptide)
# peptide: AKAEAAAYAAAAAAA
# B52: synthetic peptide #114 (peptide)
# peptide: AAEKVAAAAAAAAAA
# B53: synthetic peptide #83 (peptide)
# peptide: AEEKYAAYKAAAAAA
# B54: synthetic peptide #70 (peptide)
# peptide: AAAEYKAYAAAAAAA
# B55: synthetic peptide #61 (peptide)
# peptide: AAEEYKAYAAAAAAA
# B56: synthetic peptide #66 (peptide)
# peptide: AEAEYKAYAAAAAAA
# Target: HLA-DR2 (DRB1*1501) on antigen presenting cells (MGAR, L466) (human)
# Assay: cell-based or functional assay
row,Binder,"Inhibition of IL-2 production (%), Hy1B [%]"
1,B1,3
2,B2,30
3,B3,40
4,B4,38
5,B5,0
6,B6,30
7,B7,22
8,B8,28
9,B9,55
10,B10,25
11,B11,39
12,B12,19
13,B13,59
14,B14,36
15,B15,54
16,B16,50
17,B17,13
18,B18,22
19,B19,25

row,Binder,"Inhibition of IL-2 production (%), Hy1B [%]"
1,B20,29
2,B21,38
3,B22,52
4,B23,17
5,B24,41
6,B25,22
7,B26,36
8,B27,0
9,B28,16
10,B29,30
11,B30,29
12,B31,0
13,B32,41
14,B33,42
15,B34,32
16,B35,25
17,B36,16
18,B37,42
19,B38,41

row,Binder,"Inhibition of IL-2 production (%), Hy1B [%]"
1,B39,26
2,B40,61
3,B41,29
4,B42,22
5,B43,7
6,B44,22
7,B45,5
8,B46,23
9,B47,0
10,B48,25
11,B49,45
12,B50,47
13,B51,27
14,B52,34
15,B53,43
16,B54,24
17,B55,35
18,B56,43

# Target: T1, soluble recombinant HLA-DR2 molecules (MHC class II HLA-DR2 protein) (human)
# T1 construct: Soluble, empty protein from Drosophila S2 cells, captured on plates by antibody LB3.1; also called MHC class II DR2 protein; recombinant HLA-DR2 protein
# Assay: competition ELISA on soluble HLA-DR2; competitor biotinylated Cop 1 (1.5 µM)
row,Binder,IC50 [µM]
1,B1,> 1000
2,B2,> 1000
3,B3,> 1000
4,B4,> 1000
5,B5,> 1000
6,B6,> 1000
7,B7,> 1000
8,B8,> 1000
9,B9,> 1000
10,B10,> 1000
11,B11,> 1000
12,B12,> 1000
13,B13,> 1000
14,B14,> 1000
15,B15,> 1000
16,B16,> 1000
17,B17,> 1000
18,B18,> 1000
19,B19,> 1000

row,Binder,IC50 [µM]
1,B20,> 1000
2,B21,> 1000
3,B22,> 1000
4,B23,> 1000
5,B24,> 1000
6,B25,> 1000
7,B26,> 1000
8,B27,> 1000
9,B28,> 1000
10,B29,> 1000
11,B30,> 1000
12,B31,> 1000
13,B32,> 1000
14,B33,> 1000
15,B34,> 1000
16,B35,> 1000
17,B36,> 1000
18,B37,> 1000
19,B38,> 1000

row,Binder,IC50 [µM]
1,B39,> 1000
2,B40,> 1000
3,B41,> 1000
4,B42,> 1000
5,B43,> 1000
6,B44,> 1000
7,B45,> 1000
8,B46,> 1000
9,B47,> 1000
10,B48,> 1000
11,B49,> 1000
12,B50,> 1000
13,B51,> 1000
14,B52,> 1000
15,B53,> 1000
16,B54,> 1000
17,B55,> 1000
18,B56,> 1000
